This note sets out measurements from article PMC2881571 (Molecular microbiology, 2009).

Like-named read-outs stand apart in the source and are kept apart here.

Series [1] deals with T1, 6His-OspR (Pseudomonas aeruginosa MPAO1, UniProt Q9I018 1-163).
T1 sequence: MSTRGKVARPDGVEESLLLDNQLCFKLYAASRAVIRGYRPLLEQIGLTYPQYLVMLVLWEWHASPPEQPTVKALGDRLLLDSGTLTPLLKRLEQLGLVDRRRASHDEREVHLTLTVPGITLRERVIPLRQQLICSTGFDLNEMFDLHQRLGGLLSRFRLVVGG
Nature of the series: EMSA.

Series [2] concerns the target T1, 6His-OspR. Nature of the series: EMSA. The source holds these as a separate data set. (In general: A gel shift assay detects complexes by their altered migration in electrophoresis.)
Series [3] deals with T2, 6His-OspR C24S (Pseudomonas aeruginosa MPAO1, UniProt Q9I018 1-163, C24S).
T2 sequence: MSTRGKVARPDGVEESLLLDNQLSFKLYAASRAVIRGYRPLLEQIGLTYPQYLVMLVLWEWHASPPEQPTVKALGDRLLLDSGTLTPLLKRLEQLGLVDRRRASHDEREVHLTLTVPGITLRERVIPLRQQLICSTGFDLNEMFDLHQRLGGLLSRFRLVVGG
Kind of series: EMSA.

Series [4] deals with the molecule itself. Nature of the series: cross-linking.

B1: PA1897-p (70 bp) (dsDNA)
DNA 1: GGCAGGTTGTCCCTGCCGGGCTGTGACAATTTAATTCGACCAGGCATTTCATTGTCCGTGCCGATTTTCA
DNA 2: TGAAAATCGGCACGGACAATGAAATGCCTGGTCGAATTAAATTGTCACAGCCCGGCAGGGACAACCTGCC
B1: in series [1], the binding result is given as “binds”.

B2: B2 (PA2826 promoter, 43 bp) (dsDNA)
DNA 1: TTCAATCAAGTTGTGTGCAATTGAATTGCGAGCTACTTTATTT
DNA 2: AAATAAAGTAGCTCGCAATTCAATTGCACACAACTTGATTGAA
B2: the binding result in series [2] and in series [3] was “binds” in each case.

B3: B2d (B2 lacking AATTnAATT, 34 bp) (dsDNA)
DNA 1: TTCAATCAAGTTGTGTGCGCGAGCTACTTTATTT
DNA 2: AAATAAAGTAGCTCGCGCACACAACTTGATTGAA
B3: the binding result in series [1] is given as “no binding”.

B4: hmgA-p (PA2009-PA2010 intergenic, 70 bp) (dsDNA)
DNA 1: TGGCACGCTGGCTGCGTTATTTTTATCGTAATTCAATTACGCATAACGTAATTTGAGTGGAAGGCAGCGT
DNA 2: ACGCTGCCTTCCACTCAAATTACGTTATGCGTAATTGAATTACGATAAAAATAACGCAGCCAGCGTGCCA
Turning to B4, in series [1], the binding result is listed as “binds”.

B5: 6His-OspR C24S (natural protein, Pseudomonas aeruginosa MPAO1, UniProt Q9I018 1-163, looked up)
chain: MSTRGKVARPDGVEESLLLDNQLSFKLYAASRAVIRGYRPLLEQIGLTYPQYLVMLVLWEWHASPPEQPTVKALGDRLLLDSGTLTPLLKRLEQLGLVDRRRASHDEREVHLTLTVPGITLRERVIPLRQQLICSTGFDLNEMFDLHQRLGGLLSRFRLVVGG
In the case of B5, the binding result in series [4] is reported as “binds”.
